Data from patent US9260500B2, “Peptide and use thereof” (Takeda Pharmaceutical Company Limited, priority 2009, dated 2016).
Non-standard residues stand in square brackets, D forms with d. No end group written: not given here. *: point of attachment. Phe(4-F) = N[C@@H](Cc1ccc(F)cc1)C(=O)O; 1Nal = N[C@@H](Cc1cccc2ccccc12)C(=O)O; Lys(Me2) = CN(C)CCCC[C@H](N)C(=O)O; tBuAla = CC(C)(C)C[C@H](N)C(=O)O; 4Pal = N[C@@H](Cc1ccncc1)C(=O)O; Cha = N[C@@H](CC1CCCCC1)C(=O)O; Cit = NC(=O)NCCC[C@H](N)C(=O)O; Aipe = 3-aminobutanoic acid; dPip = O=C(O)[C@H]1CCCCN1; Isobutyryl = CC(C)C(=O)*; Iva = CC[C@](C)(N)C(=O)O; Abu = CC[C@H](N)C(=O)O; Aib = CC(C)(N)C(=O)O; Bz = O=C(c1ccccc1)*

Key:
human Y2 receptor [1] = molecular target: T1, human Y2 receptor (Homo sapiens, UniProt P49146); test: Human Y2 Receptor G Protein Binding Assay (GBA), [35S]GTPγS; format: biochemical; conditions: EC50 of test compound/EC50 of PYY(3-36) (PYY3-36 taken as 1), hY2R/CHO membrane fraction
T1 construct: expressed in transfected cells; membrane fraction
T1 sequence (P49146 1-381): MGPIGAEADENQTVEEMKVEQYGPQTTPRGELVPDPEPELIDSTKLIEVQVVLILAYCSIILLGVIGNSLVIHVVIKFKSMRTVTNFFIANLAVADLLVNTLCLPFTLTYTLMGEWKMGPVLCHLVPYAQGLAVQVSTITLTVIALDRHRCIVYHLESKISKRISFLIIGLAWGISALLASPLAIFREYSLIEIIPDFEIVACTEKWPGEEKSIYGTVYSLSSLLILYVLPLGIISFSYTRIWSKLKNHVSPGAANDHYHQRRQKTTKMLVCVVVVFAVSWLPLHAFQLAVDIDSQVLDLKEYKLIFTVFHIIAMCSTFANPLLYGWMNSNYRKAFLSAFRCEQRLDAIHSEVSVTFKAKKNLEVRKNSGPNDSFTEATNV
How it was run: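 Agonism measured as [35S]GTPγS binding, read by GF/C filtration and scintillation counting after 120 min at room temperature, using human Y2 membranes at 1 μg protein/mL in pH 7.4 Tris/MgCl2/NaCl/GDP buffer. Compound serially diluted 100 μM–1 nM; EC50 normalized to PYY(3-36) (ratio = compound/PYY).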

human Y2 receptor [2] = molecular target: T1, human Y2 receptor; test: Receptor Binding Assay (RBA) for Human Y2, [125I]-PYY displacement on hY2R/CHO membrane fraction; conditions: IC50 of test compound/IC50 of PYY(3-36) (PYY(3-36) taken as 1)
How it was run: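 hY2R stably expressed in CHO/dhfr− cells; membrane fraction prepared from cells disrupted in 10 mM NaHCO3, 5 mM EDTA buffer with protease inhibitors. Binding read as displacement of [125I]-PYY.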

Substance	GBA EC50 Ratio (human Y2 receptor [1])	RBA IC50 Ratio (human Y2 receptor [2])
Isobutanoyl-[Abu26, Cha27,36, Ser28, Aib31]-PYY(25-36) (Isobutyryl-R[Abu][Cha]SNL[Aib]TRQR[Cha]-NH2; SMILES CC[C@H](NC(=O)[C@H](CCCNC(=N)N)NC(=O)C(C)C)C(=O)N[C@@H](CC1CCCCC1)C(=O)N[C@@H](CO)C(=O)N[C@@H](CC(N)=O)C(=O)N[C@@H](CC(C)C)C(=O)NC(C)(C)C(=O)N[C@H](C(=O)N[C@@H](CCCNC(=N)N)C(=O)N[C@@H](CCC(N)=O)C(=O)N[C@@H](CCCNC(=N)N)C(=O)N[C@@H](CC1CCCCC1)C(N)=O)[C@@H](C)O) [compound No. 102]	35	49
Ac-[Aipe24, Pya(4)26, Cha27,36, Aib28,31, Lys30]-PYY(23-36) (Ac-S[Aipe]R[4Pal][Cha][Aib]NK[Aib]TRQR[Cha]-NH2) [compound No. 243]	2	1.3
[Lys(Ac)23, D-Pro24, Cha27,28,36, Aib31]-PYY(23-36) (K(Ac)[dP]RH[Cha][Cha]NL[Aib]TRQR[Cha]-NH2; N-terminus assumed; SMILES CC(=O)NCCCC[C@H](N)C(=O)N1CCC[C@@H]1C(=O)N[C@@H](CCCNC(=N)N)C(=O)N[C@@H](Cc1c[nH]cn1)C(=O)N[C@@H](CC1CCCCC1)C(=O)N[C@@H](CC1CCCCC1)C(=O)N[C@@H](CC(N)=O)C(=O)N[C@@H](CC(C)C)C(=O)NC(C)(C)C(=O)N[C@H](C(=O)N[C@@H](CCCNC(=N)N)C(=O)N[C@@H](CCC(N)=O)C(=O)N[C@@H](CCCNC(=N)N)C(=O)N[C@@H](CC1CCCCC1)C(N)=O)[C@@H](C)O) [compound No. 163]	2.5	5.4
Isobutanoyl-[Abu26, Cha27,36, Phe(4F)28, Aib31]-PYY(25-36) (Isobutyryl-R[Abu][Cha][Phe(4-F)]NL[Aib]TRQR[Cha]-NH2; SMILES CC[C@H](NC(=O)[C@H](CCCNC(=N)N)NC(=O)C(C)C)C(=O)N[C@@H](CC1CCCCC1)C(=O)N[C@@H](Cc1ccc(F)cc1)C(=O)N[C@@H](CC(N)=O)C(=O)N[C@@H](CC(C)C)C(=O)NC(C)(C)C(=O)N[C@H](C(=O)N[C@@H](CCCNC(=N)N)C(=O)N[C@@H](CCC(N)=O)C(=O)N[C@@H](CCCNC(=N)N)C(=O)N[C@@H](CC1CCCCC1)C(N)=O)[C@@H](C)O) [compound No. 79]	20	23
Ac-[D-Pro24, Pya(4)26, Cha27,36, Iva28,31, Lys30]-PYY(23-36) (Ac-S[dP]R[4Pal][Cha][Iva]NK[Iva]TRQR[Cha]-NH2; SMILES CC[C@](C)(NC(=O)[C@H](CC1CCCCC1)NC(=O)[C@H](Cc1ccncc1)NC(=O)[C@H](CCCNC(=N)N)NC(=O)[C@H]1CCCN1C(=O)[C@H](CO)NC(C)=O)C(=O)N[C@@H](CC(N)=O)C(=O)N[C@@H](CCCCN)C(=O)N[C@@](C)(CC)C(=O)N[C@H](C(=O)N[C@@H](CCCNC(=N)N)C(=O)N[C@@H](CCC(N)=O)C(=O)N[C@@H](CCCNC(=N)N)C(=O)N[C@@H](CC1CCCCC1)C(N)=O)[C@@H](C)O) [compound No. 246]	1	0.31
Ac-[D-Pro24, Har25, Pya(4)26, Cha27,36, Aib28,31, Lys30]-PYY(23-36) [compound No. 289]	1.4	0.82
Isobutanoyl-[Glu23, D-Pro24, Pya(4)26, Cha27,36, Leu(Me)28, Lys30, Aib31]-PYY(23-36) (Isobutyryl-E[dP]R[4Pal][Cha][tBuAla]NK[Aib]TRQR[Cha]-NH2; SMILES CC(C)C(=O)N[C@@H](CCC(=O)O)C(=O)N1CCC[C@@H]1C(=O)N[C@@H](CCCNC(=N)N)C(=O)N[C@@H](Cc1ccncc1)C(=O)N[C@@H](CC1CCCCC1)C(=O)N[C@@H](CC(C)(C)C)C(=O)N[C@@H](CC(N)=O)C(=O)N[C@@H](CCCCN)C(=O)NC(C)(C)C(=O)N[C@H](C(=O)N[C@@H](CCCNC(=N)N)C(=O)N[C@@H](CCC(N)=O)C(=O)N[C@@H](CCCNC(=N)N)C(=O)N[C@@H](CC1CCCCC1)C(N)=O)[C@@H](C)O) [compound No. 170]	0.88	0.43

More lines, now with the values ahead:

GBA EC50 Ratio (human Y2 receptor [1])	RBA IC50 Ratio (human Y2 receptor [2])	Substance
18	28	Benzoyl-[Cha27,28,36, Aib31]-PYY(25-36) (Bz-RH[Cha][Cha]NL[Aib]TRQR[Cha]-NH2; SMILES CC(C)C[C@H](NC(=O)[C@H](CC(N)=O)NC(=O)[C@H](CC1CCCCC1)NC(=O)[C@H](CC1CCCCC1)NC(=O)[C@H](Cc1c[nH]cn1)NC(=O)[C@H](CCCNC(=N)N)NC(=O)c1ccccc1)C(=O)NC(C)(C)C(=O)N[C@H](C(=O)N[C@@H](CCCNC(=N)N)C(=O)N[C@@H](CCC(N)=O)C(=O)N[C@@H](CCCNC(=N)N)C(=O)N[C@@H](CC1CCCCC1)C(N)=O)[C@@H](C)O) [compound No. 64]
1.3	0.92	Ac-[Lys(Me2)23, D-Pro24, Cha27,28,36, Aib31]-PYY(23-36) (Ac-[Lys(Me2)][dP]RH[Cha][Cha]NL[Aib]TRQR[Cha]-NH2; SMILES CC(=O)N[C@@H](CCCCN(C)C)C(=O)N1CCC[C@@H]1C(=O)N[C@@H](CCCNC(=N)N)C(=O)N[C@@H](Cc1c[nH]cn1)C(=O)N[C@@H](CC1CCCCC1)C(=O)N[C@@H](CC1CCCCC1)C(=O)N[C@@H](CC(N)=O)C(=O)N[C@@H](CC(C)C)C(=O)NC(C)(C)C(=O)N[C@H](C(=O)N[C@@H](CCCNC(=N)N)C(=O)N[C@@H](CCC(N)=O)C(=O)N[C@@H](CCCNC(=N)N)C(=O)N[C@@H](CC1CCCCC1)C(N)=O)[C@@H](C)O) [compound No. 160]
5.8	9.9	Ac-[D-Pic(2)24, Cha27,28,36, Aib31]-PYY(23-36) (Ac-S[dPip]RH[Cha][Cha]NL[Aib]TRQR[Cha]-NH2; SMILES CC(=O)N[C@@H](CO)C(=O)N1CCCC[C@@H]1C(=O)N[C@@H](CCCNC(=N)N)C(=O)N[C@@H](Cc1c[nH]cn1)C(=O)N[C@@H](CC1CCCCC1)C(=O)N[C@@H](CC1CCCCC1)C(=O)N[C@@H](CC(N)=O)C(=O)N[C@@H](CC(C)C)C(=O)NC(C)(C)C(=O)N[C@H](C(=O)N[C@@H](CCCNC(=N)N)C(=O)N[C@@H](CCC(N)=O)C(=O)N[C@@H](CCCNC(=N)N)C(=O)N[C@@H](CC1CCCCC1)C(N)=O)[C@@H](C)O) [compound No. 119]
13	19	Isobutanoyl-[Abu26, Cha27,36, His28, Aib31]-PYY(25-36) (Isobutyryl-R[Abu][Cha]HNL[Aib]TRQR[Cha]-NH2; SMILES CC[C@H](NC(=O)[C@H](CCCNC(=N)N)NC(=O)C(C)C)C(=O)N[C@@H](CC1CCCCC1)C(=O)N[C@@H](Cc1c[nH]cn1)C(=O)N[C@@H](CC(N)=O)C(=O)N[C@@H](CC(C)C)C(=O)NC(C)(C)C(=O)N[C@H](C(=O)N[C@@H](CCCNC(=N)N)C(=O)N[C@@H](CCC(N)=O)C(=O)N[C@@H](CCCNC(=N)N)C(=O)N[C@@H](CC1CCCCC1)C(N)=O)[C@@H](C)O) [compound No. 101]
3.1	2.7	Ac-[D-Pro24, Pya(4)26, Cha27,36, Aib28,31, Cit30]-PYY(23-36) (Ac-S[dP]R[4Pal][Cha][Aib]N[Cit][Aib]TRQR[Cha]-NH2; SMILES CC(=O)N[C@@H](CO)C(=O)N1CCC[C@@H]1C(=O)N[C@@H](CCCNC(=N)N)C(=O)N[C@@H](Cc1ccncc1)C(=O)N[C@@H](CC1CCCCC1)C(=O)NC(C)(C)C(=O)N[C@@H](CC(N)=O)C(=O)N[C@@H](CCCNC(N)=O)C(=O)NC(C)(C)C(=O)N[C@H](C(=O)N[C@@H](CCCNC(=N)N)C(=O)N[C@@H](CCC(N)=O)C(=O)N[C@@H](CCCNC(=N)N)C(=O)N[C@@H](CC1CCCCC1)C(N)=O)[C@@H](C)O) [compound No. 266]
0.86	1.1	Ac-[D-Hyp24, Pya(4)26, Cha27,36, Aib28,31, Lys30]-PYY(23-36) [compound No. 207]
1.7	2.9	Ac-[D-Pro24, Pya(4)26, Nal(1)27, Aib28,31, Lys30, Cha36]-PYY(23-36) (Ac-S[dP]R[4Pal][1Nal][Aib]NK[Aib]TRQR[Cha]-NH2; SMILES CC(=O)N[C@@H](CO)C(=O)N1CCC[C@@H]1C(=O)N[C@@H](CCCNC(=N)N)C(=O)N[C@@H](Cc1ccncc1)C(=O)N[C@@H](Cc1cccc2ccccc12)C(=O)NC(C)(C)C(=O)N[C@@H](CC(N)=O)C(=O)N[C@@H](CCCCN)C(=O)NC(C)(C)C(=O)N[C@H](C(=O)N[C@@H](CCCNC(=N)N)C(=O)N[C@@H](CCC(N)=O)C(=O)N[C@@H](CCCNC(=N)N)C(=O)N[C@@H](CC1CCCCC1)C(N)=O)[C@@H](C)O) [compound No. 306]
4.3	5.6	Benzoyl-[His27, Cha28,36, Aib31]-PYY(25-36) (Bz-RHH[Cha]NL[Aib]TRQR[Cha]-NH2; SMILES CC(C)C[C@H](NC(=O)[C@H](CC(N)=O)NC(=O)[C@H](CC1CCCCC1)NC(=O)[C@H](Cc1c[nH]cn1)NC(=O)[C@H](Cc1c[nH]cn1)NC(=O)[C@H](CCCNC(=N)N)NC(=O)c1ccccc1)C(=O)NC(C)(C)C(=O)N[C@H](C(=O)N[C@@H](CCCNC(=N)N)C(=O)N[C@@H](CCC(N)=O)C(=O)N[C@@H](CCCNC(=N)N)C(=O)N[C@@H](CC1CCCCC1)C(N)=O)[C@@H](C)O) [compound No. 104]
